The supplement of paper PMC12783771
± gives the standard deviation of the averaged measurements.

B1: library; numbered along this chain (parent)
chain: MNIQIGELAKRTACPVVTIRFYEQEGLLPPPGRSRGNFRLYGEEHVERLQFIRHCRSLDMPLSDVRTLLSYRKRPDQDCGEVNMLLDEHIRQVESRIGALLELKHHLVELREACSGARPAQSCGILQGLSDCVCDTRGTTAHPSD

What was measured:
[1] = variants of: B1; assay: sfGFP reporter fluorescence (15 h) (µM FITC); higher = higher leak; details: library round: Round 1; ligand: none
Protocol: (§1)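 Cell-free biosensing: 1 µL Echo-assembled CFE reactions with linear PbrR variant templates (5 nM) and pPbrR-sfGFP reporter, with 1 µM Pb, 30 µM Zn or no ligand; endpoint sfGFP fluorescence after 15 h at 30 °C calibrated as µM FITC. Round 1 ML-predicted PbrR mutants; 3 biological replicates.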

[2] = variants of: B1; assay: sfGFP reporter fluorescence (15 h) (µM FITC); higher = stronger transcriptional activation; details: library round: Round 1
Protocol: as §1

Row | Variant | sfGFP reporter fluorescence [1] | sfGFP reporter fluorescence ([2]; ligand: 1 µM Pb) | sfGFP reporter fluorescence ([2]; ligand: 30 µM Zn)
1 | N83T C134A | 0.0602 ± 0.0013 | 0.0716 ± 0.0016 | 0.162 ± 0.014
2 | N83T C134M | 0.05754 ± 0.00037 | 0.0707 ± 0.0046 | 0.19 ± 0.022
3 | N83T C134L | 0.0568 ± 0.0011 | 0.0739 ± 0.003 | 0.159 ± 0.025
4 | N83T C134V | 0.0588 ± 0.0022 | 0.0731 ± 0.0054 | 0.168 ± 0.016
5 | M60L D64K K104V L107C G128I | 1.95 ± 0.25 | 2.02 ± 0.3 | 2.61 ± 0.17
6 | R33A G36L | 0.0634 ± 0.0035 | 0.0567 ± 0.0051 | 0.0604 ± 0.00092
7 | E43M G128I | 0.077 ± 0.0028 | 0.206 ± 0.025 | 1.23 ± 0.086
8 | N83T D135A P143A | 0.0625 ± 0.002 | 0.0748 ± 0.0033 | 0.162 ± 0.0078
9 | P61N V108M | 0.07 ± 0.0013 | 0.122 ± 0.0096 | 0.698 ± 0.094
10 | P61N D64K V108H | 0.139 ± 0.0027 | 0.462 ± 0.044 | 1.48 ± 0.026
11 | P61N R96A | 0.0665 ± 0.00092 | 0.0876 ± 0.0059 | 0.238 ± 0.024
12 | N83S D135A | 0.0628 ± 0.0014 | 0.0731 ± 0.0064 | 0.219 ± 0.026
13 | N83S D135P | 0.0623 ± 0.00073 | 0.0811 ± 0.0058 | 0.145 ± 0.004
14 | M60L D64T L107C | 0.71 ± 0.032 | 0.754 ± 0.061 | 2.46 ± 0.078
15 | N83S I90L R111L | 0.063 ± 0.0026 | 0.079 ± 0.0099 | 0.205 ± 0.021
16 | N83S E112L | 0.0612 ± 0.0034 | 0.0759 ± 0.0016 | 0.152 ± 0.006
17 | N83I H89C | 0.0654 ± 0.0027 | 0.0645 ± 0.0035 | 0.0687 ± 0.0029
18 | D64K D135Y | 0.149 ± 0.014 | 0.386 ± 0.028 | 1.09 ± 0.15
19 | M60L D64K K104T | 0.5087 ± 0.0029 | 1.14 ± 0.23 | 2.22 ± 0.29
20 | N83F P143K | 0.0612 ± 0.00097 | 0.0718 ± 0.0033 | 0.0627 ± 0.00097
21 | D64S E109H | 0.0794 ± 0.0043 | 0.193 ± 0.0059 | 1 ± 0.12
22 | P61N D131Y | 0.0734 ± 0.00076 | 0.115 ± 0.0094 | 0.59 ± 0.078

Row | Variant | sfGFP reporter fluorescence [1] | sfGFP reporter fluorescence ([2]; ligand: 1 µM Pb) | sfGFP reporter fluorescence ([2]; ligand: 30 µM Zn)
23 | P61N D131C | 0.108 ± 0.0091 | 0.428 ± 0.043 | 1.59 ± 0.16
24 | P61N P143L | 0.0754 ± 0.0012 | 0.151 ± 0.0086 | 0.804 ± 0.13
25 | P61N D64K K104V L107C G128M | 0.854 ± 0.022 | 1.37 ± 0.39 | 2.24 ± 0.098
26 | P61N D64K K104V L107C G128I | 0.427 ± 0.0081 | 0.961 ± 0.14 | 1.77 ± 0.27
27 | M60L D64K D135S | 0.29 ± 0.02 | 0.662 ± 0.097 | 1.93 ± 0.17
28 | R39F V46C | 0.065 ± 0.0013 | 0.0632 ± 0.0031 | 0.0655 ± 0.0018
29 | N83T D131A P143I | 0.0661 ± 0.0015 | 0.088 ± 0.0036 | 0.158 ± 0.014
30 | N83T D131A P143L | 0.0646 ± 0.0011 | 0.0895 ± 0.002 | 0.161 ± 0.012
31 | P61N K104V L107E | 0.0663 ± 0.0026 | 0.0646 ± 0.0037 | 0.06805 ± 0.00056
32 | M60L P61D D64K | 0.237 ± 0.022 | 0.609 ± 0.14 | 1.82 ± 0.074
33 | D64K N83T D131S | 0.0698 ± 0.0016 | 0.29 ± 0.022 | 1.03 ± 0.022
34 | M60L D64K K104V D131C | 0.504 ± 0.028 | 1.29 ± 0.22 | 1.91 ± 0.2
35 | P61N D64K D135A | 0.123 ± 0.0068 | 0.376 ± 0.011 | 1.33 ± 0.12
36 | M60L D64K P143A | 0.3527 ± 0.0018 | 0.945 ± 0.11 | 2.4 ± 0.12
37 | P61N D64T D131C | 0.139 ± 0.011 | 0.315 ± 0.076 | 1.1 ± 0.12
38 | N83T D135P | 0.0602 ± 0.0037 | 0.0771 ± 0.00092 | 0.106 ± 0.0033
39 | N83T D135V | 0.0628 ± 0.0024 | 0.0727 ± 0.0031 | 0.184 ± 0.011
40 | N83T D135F | 0.0665 ± 0.00076 | 0.0911 ± 0.014 | 0.435 ± 0.062
41 | N83T D135A | 0.06316 ± 0.00056 | 0.0768 ± 0.0015 | 0.152 ± 0.0032
42 | V46F K104V | 0.0666 ± 0.0012 | 0.103 ± 0.0038 | 0.475 ± 0.047
43 | M60L D64K G128T D131C | 0.754 ± 0.023 | 1.8 ± 0.19 | 2.25 ± 0.44
44 | G32S C55M | 0.0668 ± 0.0018 | 0.0712 ± 0.0065 | 0.101 ± 0.0013
